Reference: US20100130424A1 (Janssen / Centocor, published 2010)
Like-named read-outs stand apart in the source and are kept apart here. Each block holds one binder with its values, some of them ahead of it. No end group written: not given here.

Tests used:
[1] = target: T1, human CRH receptor type 2 (human, UniProt Q13324 1-411); experiment: cell-based or functional assay
T1 sequence (looked up): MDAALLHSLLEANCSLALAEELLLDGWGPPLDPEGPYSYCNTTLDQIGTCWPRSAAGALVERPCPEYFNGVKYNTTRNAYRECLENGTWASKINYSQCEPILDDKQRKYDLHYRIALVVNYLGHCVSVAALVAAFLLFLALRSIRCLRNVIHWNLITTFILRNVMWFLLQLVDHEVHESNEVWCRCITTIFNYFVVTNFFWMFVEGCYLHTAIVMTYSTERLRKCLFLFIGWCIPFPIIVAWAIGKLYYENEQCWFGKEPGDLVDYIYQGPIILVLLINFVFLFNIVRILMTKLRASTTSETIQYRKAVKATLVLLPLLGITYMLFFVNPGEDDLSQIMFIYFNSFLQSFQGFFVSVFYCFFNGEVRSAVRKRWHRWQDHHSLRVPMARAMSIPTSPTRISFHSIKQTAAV

[2] = target: T1, human CRH receptor type 2; experiment: radioligand competition, [125I]-anti-sauvagine-30, membranes of h-CRHR2 SK-N-MC cells
[3] = target: T2, human CRH receptor type 1 (human, UniProt P34998 24-415); experiment: radioligand competition, [125I]-(Tyr0)-sauvagine, CRHR1 membrane assay
T2 construct: whole, on cells; on transfected SK-N-MC cells (cAMP assay); membranes in the radioligand assay; also called CRHR1; h-CRHR1
T2 sequence (looked up): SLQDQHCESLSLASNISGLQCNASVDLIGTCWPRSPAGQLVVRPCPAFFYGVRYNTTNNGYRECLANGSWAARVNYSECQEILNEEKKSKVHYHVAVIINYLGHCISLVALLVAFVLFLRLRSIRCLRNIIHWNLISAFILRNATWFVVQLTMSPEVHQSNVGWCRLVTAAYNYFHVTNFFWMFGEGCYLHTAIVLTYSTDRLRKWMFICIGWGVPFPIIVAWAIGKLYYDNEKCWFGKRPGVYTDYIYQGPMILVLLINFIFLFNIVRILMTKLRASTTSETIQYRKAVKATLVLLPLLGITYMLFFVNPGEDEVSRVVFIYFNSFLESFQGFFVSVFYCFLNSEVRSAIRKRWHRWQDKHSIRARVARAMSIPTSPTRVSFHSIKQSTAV

[4] = target: T2, human CRH receptor type 1; experiment: cell-based or functional assay
[5] = target: T3, human CRH receptor type 1 (human), P34998; experiment: radioligand competition, [125I]-(Tyr0)-sauvagine, CRHR1 membrane assay; details: remark: other sources report otherwise
T3 chain: T2 sequence (looked up)

[6] = target: T1, human CRH receptor type 2; experiment: radioligand competition, [125I]-anti-sauvagine-30, membranes of h-CRHR2 SK-N-MC cells; biphasic curve
[7] = target: T1, human CRH receptor type 2; experiment: cell-based or functional assay; remark: listed apart in the source
[8] = target: T1, human CRH receptor type 2; experiment: cell-based or functional assay; remark: listed apart in the source
[9] = target: T1, human CRH receptor type 2; experiment: cell-based or functional assay; remark: listed apart in the source

potency against amidated h-SCP, cAMP [7]: ~200 fold less potent
pA50, cAMP [8]: 7.1 -log M
αmax, cAMP [8]: 107 % of the maximum response to h-SCP
Binder: TKFTLSLDVPTNIMNLLFNIAKAKNLRAQAAANAHLMAQI-OH [non-amidated h-SCP]

pA50, cAMP [4]: 9.19 -log M
pKI [2]: 8.51 -log M
pA50, cAMP [9]: 9.08 -log M
αmax, cAMP [9]: 110
Binder: DDPPLSIDLTFHLLRTLLELARTQSQRERAEQNRIIFDSV-NH2 [r-UCN1]

Second part, the binder before the results:

B1: anti-sauvagine-30 (peptide)
peptide: FHLLRKMIEIEKQEKEKQQAANNRLLLDTI-NH2
notes: selective CRHR2 antagonist; also called SV30; CRHR antagonist peptide
pA2 against h-SCP, cAMP [1]: 7.82 -log M
pKI [2]: 7.78 -log M
pKI [3]: 5.81 -log M

Binder: FTLSLDVPTNIMNLLFNIAKAKNLRAQAAANAHLMAQI-NH2 [human Urocortin III]
pA50, cAMP [4]: < 5 -log M
pA50, cAMP [1]: 9.26 -log M
αmax, cAMP [1]: 102
pKI [5]: 4.96 -log M
pKI [2]: 6.49 -log M

Binder: TKFTLSLDVPTNIMNLLFNIAKAKNLRAQAAANAHLMAQI-NH2 (40 amino acids; also called h-SCP) [Human stresscopin with amidated C-terminus]
pA50, cAMP [4]: < 5 -log M
A50, cAMP [1]: 0.4 nM
control pA50, cAMP [1]: 9.47 to 9.74 -log M
pA50, cAMP [1]: 9.4 -log M
pA50, cAMP (one batch) [1]: 9.41 -log M
αmax, cAMP (% of the maximum response to h-SCP) [1]: 98.7
αmax, cAMP ([1]; scale: % of the maximum response obtained to h-SCP): 100
pKI [2]: 5.71 -log M
pKI [3]: 4.6 -log M
pIC50 (low affinity state) [6]: 6.6 -log M
